In IntAct's records for PubMed 19427866:

Target: T1, nbr1_human NBR1 (UniProt Q14596)
T1 sequence: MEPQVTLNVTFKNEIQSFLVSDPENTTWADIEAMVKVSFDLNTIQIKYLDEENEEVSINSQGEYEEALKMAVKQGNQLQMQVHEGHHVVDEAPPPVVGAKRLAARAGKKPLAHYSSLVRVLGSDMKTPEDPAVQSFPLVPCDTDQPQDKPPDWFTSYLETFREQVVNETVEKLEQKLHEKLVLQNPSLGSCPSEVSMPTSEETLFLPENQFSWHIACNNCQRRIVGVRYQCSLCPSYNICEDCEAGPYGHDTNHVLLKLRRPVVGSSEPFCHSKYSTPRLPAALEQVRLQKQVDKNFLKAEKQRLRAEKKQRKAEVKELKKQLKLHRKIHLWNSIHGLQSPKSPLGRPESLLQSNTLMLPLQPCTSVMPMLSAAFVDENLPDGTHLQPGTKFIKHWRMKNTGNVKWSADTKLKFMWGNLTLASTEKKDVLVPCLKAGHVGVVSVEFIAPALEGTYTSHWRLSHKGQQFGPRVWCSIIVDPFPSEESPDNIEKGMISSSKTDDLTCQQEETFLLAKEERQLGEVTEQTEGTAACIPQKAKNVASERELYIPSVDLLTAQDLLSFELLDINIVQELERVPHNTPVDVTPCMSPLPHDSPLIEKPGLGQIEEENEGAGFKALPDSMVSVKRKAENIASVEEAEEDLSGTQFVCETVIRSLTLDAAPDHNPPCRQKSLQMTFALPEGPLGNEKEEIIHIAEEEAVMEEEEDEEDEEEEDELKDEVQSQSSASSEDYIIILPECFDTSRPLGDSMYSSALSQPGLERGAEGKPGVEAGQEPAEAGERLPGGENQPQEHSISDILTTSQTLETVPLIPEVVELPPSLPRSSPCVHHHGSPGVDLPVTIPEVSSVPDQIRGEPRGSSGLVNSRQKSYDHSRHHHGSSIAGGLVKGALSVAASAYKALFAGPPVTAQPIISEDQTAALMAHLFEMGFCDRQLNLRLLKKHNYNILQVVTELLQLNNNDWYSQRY

| effect of a mutation on the interaction | Substance |
| --- | --- |
| decreasing interaction | Polyubiquitin-C (Homo sapiens) (from UniProt P0CG48) K63R |
| decreasing interaction | Polyubiquitin-C (Homo sapiens) (from UniProt P0CG48) K33R |
| decreasing interaction | Polyubiquitin-C (Homo sapiens) (from UniProt P0CG48) K48R |
